± gives the standard deviation of the averaged measurements.
Tested on: ATP
Assay: switch fluorescence ratio, 500 uM ATP over buffer (Cy3 cluster intensity, sum of 5 cycles each) (fold (ratio)); higher = stronger signal-on switching upon ATP binding; sequences stand for … in TCGTCGGCAGCGTCAGATGTGTATAAGAGACAGTTTTTTTTTTTTTTTTTTTTTTTTT…TC
Conditions: aptamer strand: ATP DNA aptamer (quencher-CACCTGGGGGAGTATTGCGGAGGAAGG + anchor), 100 nM annealed; ATP concentration: 500 uM
How it was run: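 Imaging in selection buffer was followed by imaging after 15 min with 500 uM ATP at 22 °C, for Cy3-labelled switching-strand clusters annealed to 100 nM quencher-labelled ATP aptamer on a modified Illumina MiSeq flow-cell. Five of these buffer/ATP cycles ran, separated by NaOH stripping and re-annealing. The fluorescence ratio per cluster is summed target-cycle over summed buffer-cycle Cy3 intensity, averaged per switch-domain sequence; clusters outside 100-1000 RFU were removed.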
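Further: ATP exposure 15 min at 22 °C before imaging.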

**Q.** Which switch fluorescence ratio does the source give for GGGGAATACA here?
**A.** 1.02 ± 0.017

**Q.** Which switch fluorescence ratio does the source give for GGGGAATGGA here?
**A.** 0.982 ± 0.028

**Q.** For GGGGAATTGA, which switch fluorescence ratio is on record?
**A.** 0.9919 ± 0.0013

**Q.** With GGGGAATTGG as the sequence, how does the switch fluorescence ratio read?
**A.** 0.994 ± 0.024

**Q.** Which switch fluorescence ratio does the source give for GGGGACAAAT here?
**A.** 1.05 ± 0.0011

**Q.** With GGGGACAGTG as the sequence, how does the switch fluorescence ratio read?
**A.** 1.01 ± 0.13

**Q.** How did the switch fluorescence ratio turn out when GGGGACCAAT was run?
**A.** 1 ± 0.016

**Q.** How did the switch fluorescence ratio turn out when GGGGACGGAC was run?
**A.** 1.04 ± 0.035

**Q.** For GGGGACTGCG, which switch fluorescence ratio is on record?
**A.** 1.05 ± 0.023

**Q.** With GGGGACTTAT as the sequence, how does the switch fluorescence ratio read?
**A.** 1.02 ± 0.017

**Q.** For GGGGACTTGT, which switch fluorescence ratio is on record?
**A.** 0.9988 ± 0.0082

**Q.** How did the switch fluorescence ratio turn out when GGGGACTTTG was run?
**A.** 1.09 ± 0.073

**Q.** GGGGACTTTT was tested. Which switch fluorescence ratio did it give?
**A.** 0.99 ± 0.026

**Q.** With GGGGAGAATG as the sequence, how does the switch fluorescence ratio read?
**A.** 0.9802 ± 0.0069

**Q.** Which switch fluorescence ratio does the source give for GGGGAGAGAG here?
**A.** 0.9747 ± 0.0073

**Q.** GGGGAGATTC was tested. Which switch fluorescence ratio did it give?
**A.** 0.994 ± 0.013

**Q.** GGGGAGCGAG was tested. Which switch fluorescence ratio did it give?
**A.** 1.02 ± 0.046

**Q.** For GGGGAGCTAC, which switch fluorescence ratio is on record?
**A.** 1.17 ± 0.038

**Q.** With GGGGAGGACA as the sequence, how does the switch fluorescence ratio read?
**A.** 1.04 ± 0.082

**Q.** With GGGGAGGCCT as the sequence, how does the switch fluorescence ratio read?
**A.** 1.01 ± 0.031

**Q.** GGGGAGGGAA was tested. Which switch fluorescence ratio did it give?
**A.** 1.01 ± 0.027

**Q.** For GGGGAGGTGT, which switch fluorescence ratio is on record?
**A.** 1.05 ± 0.066

**Q.** For GGGGAGTACT, which switch fluorescence ratio is on record?
**A.** 1.34 ± 0.44

**Q.** For GGGGAGTATT, which switch fluorescence ratio is on record?
**A.** 0.971 ± 0.015

**Q.** For GGGGAGTTTC, which switch fluorescence ratio is on record?
**A.** 1.065 ± 0.0042

**Q.** With GGGGATAGAA as the sequence, how does the switch fluorescence ratio read?
**A.** 0.982 ± 0.014

**Q.** For GGGGATAGGG, which switch fluorescence ratio is on record?
**A.** 0.985 ± 0.016

**Q.** Which switch fluorescence ratio does the source give for GGGGATATGA here?
**A.** 0.995 ± 0.049

**Q.** How did the switch fluorescence ratio turn out when GGGGATCAGG was run?
**A.** 1.03 ± 0.075

**Q.** How did the switch fluorescence ratio turn out when GGGGATGAAT was run?
**A.** 1 ± 0.024

**Q.** Which switch fluorescence ratio does the source give for GGGGATGAGG here?
**A.** 0.9698 ± 0.0095

**Q.** With GGGGATTGGA as the sequence, how does the switch fluorescence ratio read?
**A.** 0.979 ± 0.031

**Q.** GGGGATTGGG was tested. Which switch fluorescence ratio did it give?
**A.** 0.987 ± 0.028

**Q.** Which switch fluorescence ratio does the source give for GGGGATTTAG here?
**A.** 0.971 ± 0.027

**Q.** Which switch fluorescence ratio does the source give for GGGGATTTAT here?
**A.** 0.997 ± 0.019

**Q.** For GGGGATTTCT, which switch fluorescence ratio is on record?
**A.** 0.99526 ± 0.00079

**Q.** GGGGCAAAGG was tested. Which switch fluorescence ratio did it give?
**A.** 1.03 ± 0.075

**Q.** How did the switch fluorescence ratio turn out when GGGGCACAGC was run?
**A.** 1 ± 0.016

**Q.** How did the switch fluorescence ratio turn out when GGGGCACGTG was run?
**A.** 0.995 ± 0.015

**Q.** Which switch fluorescence ratio does the source give for GGGGCACTGC here?
**A.** 1.008 ± 0.0024

**Q.** How did the switch fluorescence ratio turn out when GGGGCACTGT was run?
**A.** 1.01 ± 0.013

**Q.** With GGGGCAGTCA as the sequence, how does the switch fluorescence ratio read?
**A.** 0.9785 ± 0.0031

**Q.** For GGGGCATGGG, which switch fluorescence ratio is on record?
**A.** 0.995 ± 0.033

**Q.** Which switch fluorescence ratio does the source give for GGGGCCCGGG here?
**A.** 1.04 ± 0.036

**Q.** How did the switch fluorescence ratio turn out when GGGGCCGGGG was run?
**A.** 1.01 ± 0.018

**Q.** GGGGCCGTTA was tested. Which switch fluorescence ratio did it give?
**A.** 1.012 ± 0.0042

**Q.** With GGGGCGGCAG as the sequence, how does the switch fluorescence ratio read?
**A.** 0.998 ± 0.013

**Q.** GGGGCGGCCC was tested. Which switch fluorescence ratio did it give?
**A.** 1.03 ± 0.049

**Q.** With GGGGCGGCGT as the sequence, how does the switch fluorescence ratio read?
**A.** 1.02 ± 0.065

**Q.** Which switch fluorescence ratio does the source give for GGGGCGGGAT here?
**A.** 1.01 ± 0.02

**Q.** How did the switch fluorescence ratio turn out when GGGGCGGTCT was run?
**A.** 0.9667 ± 0.004

**Q.** Which switch fluorescence ratio does the source give for GGGGCGTAGT here?
**A.** 0.9995 ± 0.0075

**Q.** With GGGGCGTGGG as the sequence, how does the switch fluorescence ratio read?
**A.** 0.963 ± 0.042

**Q.** Which switch fluorescence ratio does the source give for GGGGCGTTAT here?
**A.** 0.969 ± 0.048

**Q.** Which switch fluorescence ratio does the source give for GGGGCTAATG here?
**A.** 1.01 ± 0.023

**Q.** Which switch fluorescence ratio does the source give for GGGGCTAGAT here?
**A.** 1.034 ± 0.0076

**Q.** Which switch fluorescence ratio does the source give for GGGGCTAGTA here?
**A.** 0.991 ± 0.035

**Q.** Which switch fluorescence ratio does the source give for GGGGCTAGTG here?
**A.** 0.977 ± 0.046

**Q.** For GGGGCTATTT, which switch fluorescence ratio is on record?
**A.** 1.01 ± 0.066

**Q.** Which switch fluorescence ratio does the source give for GGGGCTGCAG here?
**A.** 1.09 ± 0.11

**Q.** For GGGGCTGTTG, which switch fluorescence ratio is on record?
**A.** 0.966 ± 0.024

**Q.** For GGGGCTTAAG, which switch fluorescence ratio is on record?
**A.** 1.02 ± 0.035

**Q.** For GGGGCTTCTT, which switch fluorescence ratio is on record?
**A.** 0.9823 ± 0.0038

**Q.** How did the switch fluorescence ratio turn out when GGGGCTTGAC was run?
**A.** 1.01 ± 0.022

**Q.** GGGGCTTGGC was tested. Which switch fluorescence ratio did it give?
**A.** 0.999 ± 0.031

**Q.** Which switch fluorescence ratio does the source give for GGGGCTTGGG here?
**A.** 0.989 ± 0.043

**Q.** How did the switch fluorescence ratio turn out when GGGGGAAAAG was run?
**A.** 1.03 ± 0.1

**Q.** How did the switch fluorescence ratio turn out when GGGGGAAAAT was run?
**A.** 0.993 ± 0.042

**Q.** With GGGGGAACGG as the sequence, how does the switch fluorescence ratio read?
**A.** 1.08 ± 0.1

**Q.** Which switch fluorescence ratio does the source give for GGGGGAAGCG here?
**A.** 0.9685 ± 0.0034

**Q.** Which switch fluorescence ratio does the source give for GGGGGAAGGC here?
**A.** 1.15 ± 0.23

**Q.** Which switch fluorescence ratio does the source give for GGGGGAAGTT here?
**A.** 0.986 ± 0.042

**Q.** For GGGGGAATCC, which switch fluorescence ratio is on record?
**A.** 1.06 ± 0.08

**Q.** For GGGGGACAGC, which switch fluorescence ratio is on record?
**A.** 0.992 ± 0.023

**Q.** How did the switch fluorescence ratio turn out when GGGGGACGGC was run?
**A.** 0.985 ± 0.049

**Q.** For GGGGGACGGG, which switch fluorescence ratio is on record?
**A.** 1.02 ± 0.029

**Q.** With GGGGGACTAG as the sequence, how does the switch fluorescence ratio read?
**A.** 1.02 ± 0.024

**Q.** GGGGGACTTG was tested. Which switch fluorescence ratio did it give?
**A.** 0.997 ± 0.021

**Q.** Which switch fluorescence ratio does the source give for GGGGGAGACA here?
**A.** 0.997 ± 0.027

**Q.** GGGGGAGGCG was tested. Which switch fluorescence ratio did it give?
**A.** 1.03 ± 0.082

**Q.** Which switch fluorescence ratio does the source give for GGGGGAGGT here?
**A.** 0.986 ± 0.038

**Q.** Which switch fluorescence ratio does the source give for GGGGGAGTGG here?
**A.** 0.982 ± 0.054

**Q.** For GGGGGATTCC, which switch fluorescence ratio is on record?
**A.** 1.02 ± 0.017

**Q.** GGGGGCAAGA was tested. Which switch fluorescence ratio did it give?
**A.** 0.999 ± 0.06

**Q.** For GGGGGCACG, which switch fluorescence ratio is on record?
**A.** 1.006 ± 0.0098

**Q.** With GGGGGCATCA as the sequence, how does the switch fluorescence ratio read?
**A.** 1.07 ± 0.12

**Q.** With GGGGGCCATG as the sequence, how does the switch fluorescence ratio read?
**A.** 1.03 ± 0.068

**Q.** With GGGGGCGGAC as the sequence, how does the switch fluorescence ratio read?
**A.** 0.974 ± 0.097

**Q.** GGGGGCGGCA was tested. Which switch fluorescence ratio did it give?
**A.** 0.988 ± 0.042

**Q.** GGGGGCGGGC was tested. Which switch fluorescence ratio did it give?
**A.** 1.01 ± 0.081

**Q.** With GGGGGCGTGT as the sequence, how does the switch fluorescence ratio read?
**A.** 0.977 ± 0.019

**Q.** GGGGGCTAAA was tested. Which switch fluorescence ratio did it give?
**A.** 1.02 ± 0.017

**Q.** For GGGGGCTGCA, which switch fluorescence ratio is on record?
**A.** 1.02 ± 0.032

**Q.** For GGGGGCTGGG, which switch fluorescence ratio is on record?
**A.** 0.992 ± 0.025

**Q.** How did the switch fluorescence ratio turn out when GGGGGCTTGG was run?
**A.** 0.998 ± 0.032

**Q.** Which switch fluorescence ratio does the source give for GGGGGGAAAC here?
**A.** 1 ± 0.022

**Q.** For GGGGGGAAAT, which switch fluorescence ratio is on record?
**A.** 1.01 ± 0.057

**Q.** For GGGGGGACGG, which switch fluorescence ratio is on record?
**A.** 0.969 ± 0.04

**Q.** Which switch fluorescence ratio does the source give for GGGGGGACTT here?
**A.** 0.983 ± 0.029

**Q.** Which switch fluorescence ratio does the source give for GGGGGGAGTC here?
**A.** 1.05 ± 0.028
